Experimental data taken from the supplement of paper PMC7877785.
± gives the uncertainty stated by the source.

Assay: self-splicing fitness, log relative to wild type (ln ratio); higher = more splicing; Tetrahymena group I intron in knt gene, E. coli kanamycin selection, DiMSum; sequences stand for … in CUCUCU…GGAGGGAAAAGUUAUCAGGCAUGCACCUGGUAGCUAGUCUUUAAACCAAUAGAUUGCAUCGGUUUAAAAGGCAAGACCGUCAAAUUGCGGGAAAGGGGUCAACAGCCGUUCAGUACCAAGUCUCAGGGGAAACUUUGAGAUGGCCUUGCAAAGGGUAUGGUAAUAAGCUGACGGACAUGGUCCUAACCACGCAGCCAAGUCCUAAGUCAACAGAUCUUCUGUUGAUAUGGAUGCAGUUCACAGACUAAAUGUCGGUCGGGGAAGAUGUAUUCUUCUCAUAAGAUAUAGUCGGACCUCUCCUUAAUGGGAGCUAGCGGAUGAAGUGAUGCAACACUGGAGCCGCUGGGAACUAAUUUGUAUGCGAAAGUAUAUUGAUUAGUUUUGGAGUACUCGUGGUCG
In short: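 Pooled colonies went to amplicon sequencing on an Illumina HiSeq 2500 after six replicate transformations. The plates were LB agar with 100 μg/mL carbenicillin, 50 μM IPTG and 0.2% rhamnose, with or without 25 μg/mL kanamycin, incubated overnight at 37°C or 30°C. The E. coli BL21(DE3) library had all eight P1ex-region intron nucleotides randomised, the intron placed in the knt kanamycin-resistance gene on pET-22b(+). DiMSum fitness is the error-weighted combination of replicate fold changes, kanamycin against none, normalised to wild type.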

Sequence | self-splicing fitness (ln) (30 °C) | self-splicing fitness (ln) (37 °C)
CACAAGCAAUAUUACGGGAG | -1.55 ± 0.065 | -1.46 ± 0.076
GCUCAGCAAUAUUACGCAAA | -1.15 ± 0.18 | -0.688 ± 0.14
AGCUAGCAAUAUUACGCAAC | -3.6 ± 0.35 | -1.86 ± 0.32
GACUAGCAAUAUUACGCACC | -0.905 ± 0.18 | 0.000851 ± 0.28
CAGCAGCAAUAUUACGGUCC | -3.63 ± 0.22 | -1.63 ± 0.2
GUACAGCAAUAUUACGGUGU | -3.2 ± 0.14 | -1.51 ± 0.13
GAAUAGCAAUAUUACGCUUC |  | -1.83 ± 0.44
GUAGAGCAAUAUUACGGCAC | -0.941 ± 0.4 | 
GCUAAGCAAUAUUACGCGUA | -1.26 ± 0.12 | -0.718 ± 0.14
AGCAAGCAAUAUUACGAAUU | -2.55 ± 0.08 | -1.68 ± 0.09
CCCAAGCAAUAUUACGCUGC | -2.44 ± 0.2 | -2.43 ± 0.41
CAUGAGCAAUAUUACGAAUA | -1.59 ± 0.18 | -2.72 ± 0.4
ACUAAGCAAUAUUACGAUGU | -1.62 ± 0.1 | -1.38 ± 0.13
GGUCAGCAAUAUUACGGCGA | 0.307 ± 0.14 | 0.838 ± 0.14
GAAUAGCAAUAUUACGACGA | -0.436 ± 0.36 | 0.000314 ± 0.24
AGGUAGCAAUAUUACGCCCG | -0.077 ± 0.022 | -0.122 ± 0.04
AAAGAGCAAUAUUACGUAUA | -3.45 ± 0.37 | -1.89 ± 0.32
UGUCAGCAAUAUUACGGUUC | -3.07 ± 0.2 | -1.63 ± 0.24
GUAUAGCAAUAUUACGUUUC | -3.37 ± 0.25 | -2.36 ± 0.33
UGAGAGCAAUAUUACGUCGA | -2.82 ± 0.39 | -3.1 ± 0.47
CAGUAGCAAUAUUACGGUGC | -3.8 ± 0.28 | -3.2 ± 0.31
UAGGAGCAAUAUUACGAUCA | -1.02 ± 0.2 | -0.542 ± 0.28
GUGUAGCAAUAUUACGCUUU | -3.2 ± 0.21 | -2.54 ± 0.22
CUGUAGCAAUAUUACGAAGU | -2.13 ± 0.23 | -1.82 ± 0.27
